Source: US20140087995A1 (published 2014)
Where two headings read alike, the source gives them in different places. Numbered stars: 1 amine (or outer) side, 2 acyl side, 3 side chain; on linkers, the order of the positions; unused ones are H or OH. Bridge positions count the residues as written; N and C are the ends. Side chains are listed from the residue outwards. Ends that are not written are not given here. * marks the point of attachment. C20 diacid = O=C(O)CCCCCCCCCCCCCCCCCCC(=O)*; γGlu = O=C(O)[C@H](CCC(=O)[*:2])N[*:1]; AEEA = NCCOCCOCC(=O)O

T1: rat amylin receptor (rat calcitonin receptor + rat RAMP 3) (rat, UniProt P32214 25-516; Q9JJ73 23-147)
T1 construct: whole, on cells; Membranes of transiently transfected BHK tk'ts 13 cells (Assay VI); also called rAmylin-R; rat amylin 3(a) receptor
T1 sequence (looked up) 1: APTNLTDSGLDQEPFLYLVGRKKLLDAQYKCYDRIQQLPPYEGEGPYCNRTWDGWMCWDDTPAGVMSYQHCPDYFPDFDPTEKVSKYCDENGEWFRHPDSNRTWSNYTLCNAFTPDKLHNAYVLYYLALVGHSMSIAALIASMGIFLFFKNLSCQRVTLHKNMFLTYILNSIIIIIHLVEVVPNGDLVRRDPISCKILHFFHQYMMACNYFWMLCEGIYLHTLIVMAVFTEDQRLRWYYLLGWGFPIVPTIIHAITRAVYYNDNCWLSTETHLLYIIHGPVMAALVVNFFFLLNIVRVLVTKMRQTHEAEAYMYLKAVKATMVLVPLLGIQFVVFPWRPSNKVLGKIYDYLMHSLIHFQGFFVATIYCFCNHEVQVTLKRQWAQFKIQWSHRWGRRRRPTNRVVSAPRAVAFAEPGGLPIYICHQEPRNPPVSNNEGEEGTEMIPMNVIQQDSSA
T1 sequence (looked up) 2: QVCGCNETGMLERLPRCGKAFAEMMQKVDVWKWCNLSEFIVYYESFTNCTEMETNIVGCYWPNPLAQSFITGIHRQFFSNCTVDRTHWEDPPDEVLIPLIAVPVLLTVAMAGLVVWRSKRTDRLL

T2: rat calcitonin receptor (rat, UniProt P32214 25-516)
T2 construct: whole, on cells; Membranes of transiently transfected BHK tk'ts 13 cells (Assay VIII); also called rCTR
T2 sequence (looked up): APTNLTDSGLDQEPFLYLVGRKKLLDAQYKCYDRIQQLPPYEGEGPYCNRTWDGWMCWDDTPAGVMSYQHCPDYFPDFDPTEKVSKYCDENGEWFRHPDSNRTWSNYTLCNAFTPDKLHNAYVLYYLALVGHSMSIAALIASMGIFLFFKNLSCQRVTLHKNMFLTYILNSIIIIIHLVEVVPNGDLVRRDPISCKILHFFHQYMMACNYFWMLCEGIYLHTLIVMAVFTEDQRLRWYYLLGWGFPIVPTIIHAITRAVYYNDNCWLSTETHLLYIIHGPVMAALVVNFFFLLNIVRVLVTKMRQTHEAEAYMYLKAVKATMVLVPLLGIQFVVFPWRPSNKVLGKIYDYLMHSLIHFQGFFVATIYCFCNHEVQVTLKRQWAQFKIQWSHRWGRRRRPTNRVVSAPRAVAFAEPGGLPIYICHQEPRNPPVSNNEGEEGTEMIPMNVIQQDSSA

T3: human calcitonin receptor (human, UniProt P30988 25-474)
T3 construct: whole, on cells; Membranes of a stably transfected BHK cell line (Assay VII); also called hCTR; hCT
T3 sequence (looked up): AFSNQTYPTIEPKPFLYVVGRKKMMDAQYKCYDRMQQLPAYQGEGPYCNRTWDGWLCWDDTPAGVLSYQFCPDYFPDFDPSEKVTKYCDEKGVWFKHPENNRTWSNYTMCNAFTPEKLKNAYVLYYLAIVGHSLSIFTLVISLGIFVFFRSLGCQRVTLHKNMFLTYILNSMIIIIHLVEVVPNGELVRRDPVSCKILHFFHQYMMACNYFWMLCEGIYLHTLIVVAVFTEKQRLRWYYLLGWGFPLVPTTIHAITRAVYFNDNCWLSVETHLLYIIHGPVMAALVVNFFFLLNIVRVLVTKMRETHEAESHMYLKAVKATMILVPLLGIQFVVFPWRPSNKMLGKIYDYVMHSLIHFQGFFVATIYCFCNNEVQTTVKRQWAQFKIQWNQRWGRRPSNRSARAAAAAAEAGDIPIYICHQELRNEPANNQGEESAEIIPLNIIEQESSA

T4: rat amylin receptor (rat calcitonin receptor + rat RAMP 3) (rat, UniProt P32214 25-516; Q9JJ73 23-147)
T4 construct: whole, on cells; also called rAmylin-R; rat amylin 3(a) receptor
T4 sequence (looked up) 1: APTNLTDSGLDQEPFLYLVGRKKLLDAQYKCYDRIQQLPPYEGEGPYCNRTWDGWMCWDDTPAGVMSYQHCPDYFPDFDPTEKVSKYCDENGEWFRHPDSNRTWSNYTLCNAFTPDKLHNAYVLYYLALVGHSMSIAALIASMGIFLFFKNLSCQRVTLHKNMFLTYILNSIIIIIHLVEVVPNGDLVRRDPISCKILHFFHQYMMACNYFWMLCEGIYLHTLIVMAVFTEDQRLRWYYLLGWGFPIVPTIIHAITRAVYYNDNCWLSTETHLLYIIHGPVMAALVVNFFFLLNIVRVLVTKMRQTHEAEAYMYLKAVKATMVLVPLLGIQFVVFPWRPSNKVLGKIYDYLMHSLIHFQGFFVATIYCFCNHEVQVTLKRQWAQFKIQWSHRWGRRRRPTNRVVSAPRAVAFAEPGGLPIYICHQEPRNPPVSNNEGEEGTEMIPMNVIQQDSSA
T4 sequence (looked up) 2: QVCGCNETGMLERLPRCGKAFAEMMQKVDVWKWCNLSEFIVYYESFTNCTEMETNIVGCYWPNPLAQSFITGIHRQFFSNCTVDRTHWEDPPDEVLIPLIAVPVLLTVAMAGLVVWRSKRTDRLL

T5: rat calcitonin receptor (rat, UniProt P32214 25-516)
T5 construct: whole, on cells; also called rCTR; rat calcitonin (a) receptor
T5 sequence (looked up): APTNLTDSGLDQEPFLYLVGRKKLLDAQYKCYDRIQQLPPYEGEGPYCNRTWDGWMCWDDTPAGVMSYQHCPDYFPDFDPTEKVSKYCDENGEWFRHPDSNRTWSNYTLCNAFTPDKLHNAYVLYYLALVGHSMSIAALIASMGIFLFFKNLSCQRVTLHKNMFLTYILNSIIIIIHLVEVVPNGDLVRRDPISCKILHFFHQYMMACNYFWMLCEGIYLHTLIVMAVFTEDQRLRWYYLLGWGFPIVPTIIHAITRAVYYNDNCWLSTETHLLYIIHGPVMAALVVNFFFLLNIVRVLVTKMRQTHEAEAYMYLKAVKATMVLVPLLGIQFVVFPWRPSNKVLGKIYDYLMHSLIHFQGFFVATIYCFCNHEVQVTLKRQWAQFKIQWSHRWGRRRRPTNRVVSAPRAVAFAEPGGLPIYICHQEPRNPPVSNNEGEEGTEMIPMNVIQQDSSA

T6: human calcitonin receptor (human, UniProt P30988 25-474)
T6 construct: whole, on cells; also called hCTR; hCT
T6 sequence (looked up): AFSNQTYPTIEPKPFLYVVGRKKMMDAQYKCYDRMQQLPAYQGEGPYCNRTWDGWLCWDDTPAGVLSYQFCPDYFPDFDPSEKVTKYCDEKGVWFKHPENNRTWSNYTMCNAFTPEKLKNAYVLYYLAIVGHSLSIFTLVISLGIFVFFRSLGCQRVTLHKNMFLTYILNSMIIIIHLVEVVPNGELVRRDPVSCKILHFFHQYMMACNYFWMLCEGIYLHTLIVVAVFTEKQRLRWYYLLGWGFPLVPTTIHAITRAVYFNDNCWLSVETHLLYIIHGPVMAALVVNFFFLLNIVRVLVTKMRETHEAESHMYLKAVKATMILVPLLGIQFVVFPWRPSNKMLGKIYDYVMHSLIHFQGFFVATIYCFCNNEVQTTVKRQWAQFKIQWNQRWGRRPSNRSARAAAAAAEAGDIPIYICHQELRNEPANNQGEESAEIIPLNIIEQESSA


Tests used:
[1] = target: T1, rat amylin receptor (rat calcitonin …); assay: SPA competition with 125I-rat amylin, membranes of BHK cells with rat calcitonin receptor + rat RAMP3 (Assay VI)
rat calcitonin receptor [2] = target: T2, rat calcitonin receptor; assay: SPA competition with 125I-calcitonin, membranes of BHK cells with rat calcitonin receptor (Assay VIII)
rat calcitonin receptor [3] = target: T2, rat calcitonin receptor; assay: ratio IC50 rat calcitonin receptor / IC50 rat amylin receptor (reference)
[4] = target: T3, human calcitonin receptor; assay: ratio IC50 human calcitonin receptor / IC50 human amylin receptor (reference)
Method in brief: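 Scintillation proximity competition binding on cell membranes at 35 ng/μL with SPA beads, in 50 mM Hepes pH 7.4, 1 mM CaCl2, 5 mM MgCl₂, 0.1% OA, 0.02% Tween20. Incubated 120 min at 25° C with shaking. IC₅₀ from one-site competition fit.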

[5] = target: T4, rat amylin receptor (rat calcitonin …); assay: SPA competition with 125I-rat amylin, membranes of BHK cells with rat calcitonin receptor + rat RAMP3 (Assay VI)
rat calcitonin receptor [6] = target: T5, rat calcitonin receptor; assay: ratio of binding IC50s: rat calcitonin receptor over rat amylin receptor (reference)
[7] = target: T6, human calcitonin receptor; assay: ratio of binding IC50s: human calcitonin receptor over human amylin receptor (reference)
Protocol: The resulting pellet was resuspended, homogenized and centrifuged (20.000 rpm, 15 min) in a buffer containing 20 mM Na-HEPES and 0.1 mM EDTA (pH 7.4, buffer 2). The resulting pellet was resuspended in buffer 2 and protein concentration was measured (BCA protein Assay, Pierce). The homogenate was kept cold during the whole procedure. The membranes were kept at −80° C. until use. The assay was performed in a 384 well Optiplate (PerkinElmer) in a total volume of 40 ul. Membranes were mixed with SPA beads. Final concentration of membranes 35 ng/μL final and SPA beads was 0.05 mg/well. Test-compounds were dissolved in DMSO and further diluted in assay buffer (50 mM Hepes, pH 7.4, 1 mM CaCl2, 5 mM MgCl₂, 0.1% OA and 0.02% Tween20). […] The final mixture was incubated with shaking at 400 rpm for 120 min at 25° C. prior to centrifugation (1500 rpm, 10 min). Samples were analyzed on TopCounter™ (Packard). The IC₅₀ was calculated using (one site binding competition analysis) GraphPad Prism5 as a measure of receptor affinity.
Membranes were prepared in the following way; the cells were rinsed with PBS and incubated with Versene for approximately 5 min before harvesting. The cells were flushed with PBS and the cell-suspension was centrifuged for 5 min at 1000 rpm. Cells were homogenized (Ultrathurrax) in a buffer containing 20 mM Na-HEPES and 10 mM EDTA (pH 7.4) and centrifuged at 20.000 rpm for 15 min. The resulting pellet was resuspended, homogenized and centrifuged (20.000 rpm, 15 min) in a buffer containing 20 mM Na-HEPES and 0.1 mM EDTA (pH 7.4, buffer 2). The resulting pellet was resuspended in buffer 2 and protein concentration was measured (BCA protein Assay, Pierce). The homogenate was kept cold during the whole procedure. The membranes were kept at −80° C. until use. Assay was performed in a 384 well Optiplate (PerkinElmer) in a total volume of 40 ul. Membranes were mixed with SPA beads.

rat calcitonin receptor [8] = target: T5, rat calcitonin receptor; assay: SPA competition with 125I-calcitonin, membranes of BHK cells with rat calcitonin receptor (Assay VIII)

IC50 [1] [nM]	IC50 (rat calcitonin receptor [2]) [nM]	Ratio rCT/rAmylin binding (rat calcitonin receptor [3])	Ratio hCT/hAmylin binding [4]	IC50 [5] [nM]	Ratio rCT/rAmylin binding (rat calcitonin receptor [6])	Ratio hCT/hAmylin binding [7]	IC50 (rat calcitonin receptor [8]) [nM]	Binder
2.7	216	79.8	100	–	–	–	–	{C20 diacid-γGlu}-GRCNTATCATQRLAHFLRHSSPNFGAIPSSTNVGSNTY-NH2 (disulfide 3-8; SMILES CC[C@H](C)[C@H](NC(=O)[C@H](C)NC(=O)CNC(=O)[C@H](Cc1ccccc1)NC(=O)[C@H](CC(N)=O)NC(=O)[C@@H]1CCCN1C(=O)[C@H](CO)NC(=O)[C@H](CO)NC(=O)[C@H](Cc1c[nH]cn1)NC(=O)[C@H](CCCNC(=N)N)NC(=O)[C@H](CC(C)C)NC(=O)[C@H](Cc1ccccc1)NC(=O)[C@H](Cc1c[nH]cn1)NC(=O)[C@H](C)NC(=O)[C@H](CC(C)C)NC(=O)[C@H](CCCNC(=N)N)NC(=O)[C@H](CCC(N)=O)NC(=O)[C@@H](NC(=O)[C@H](C)NC(=O)[C@@H]1CSSC[C@H](NC(=O)[C@H](CCCNC(=N)N)NC(=O)CNC(=O)CC[C@H](NC(=O)CCCCCCCCCCCCCCCCCCC(=O)O)C(=O)O)C(=O)N[C@@H](CC(N)=O)C(=O)N[C@@H]([C@@H](C)O)C(=O)N[C@@H](C)C(=O)N[C@@H]([C@@H](C)O)C(=O)N1)[C@@H](C)O)C(=O)N1CCC[C@H]1C(=O)N[C@@H](CO)C(=O)N[C@@H](CO)C(=O)N[C@H](C(=O)N[C@@H](CC(N)=O)C(=O)N[C@H](C(=O)NCC(=O)N[C@@H](CO)C(=O)N[C@@H](CC(N)=O)C(=O)N[C@H](C(=O)N[C@@H](Cc1ccc(O)cc1)C(N)=O)[C@@H](C)O)C(C)C)[C@@H](C)O, also called compound 99)
–	–	–	–	0.45	104	65.3	46.8	K([AEEA-γGlu-C20 diacid])CNTATCATQRLAHFLRHSSPNFGAIPSSTNVGSNTY-NH2 (disulfide 2-7; N-terminus assumed; SMILES CC[C@H](C)[C@H](NC(=O)[C@H](C)NC(=O)CNC(=O)[C@H](Cc1ccccc1)NC(=O)[C@H](CC(N)=O)NC(=O)[C@@H]1CCCN1C(=O)[C@H](CO)NC(=O)[C@H](CO)NC(=O)[C@H](Cc1c[nH]cn1)NC(=O)[C@H](CCCNC(=N)N)NC(=O)[C@H](CC(C)C)NC(=O)[C@H](Cc1ccccc1)NC(=O)[C@H](Cc1c[nH]cn1)NC(=O)[C@H](C)NC(=O)[C@H](CC(C)C)NC(=O)[C@H](CCCNC(=N)N)NC(=O)[C@H](CCC(N)=O)NC(=O)[C@@H](NC(=O)[C@H](C)NC(=O)[C@@H]1CSSC[C@H](NC(=O)[C@@H](N)CCCCNC(=O)COCCOCCNC(=O)CC[C@H](NC(=O)CCCCCCCCCCCCCCCCCCC(=O)O)C(=O)O)C(=O)N[C@@H](CC(N)=O)C(=O)N[C@@H]([C@@H](C)O)C(=O)N[C@@H](C)C(=O)N[C@@H]([C@@H](C)O)C(=O)N1)[C@@H](C)O)C(=O)N1CCC[C@H]1C(=O)N[C@@H](CO)C(=O)N[C@@H](CO)C(=O)N[C@H](C(=O)N[C@@H](CC(N)=O)C(=O)N[C@H](C(=O)NCC(=O)N[C@@H](CO)C(=O)N[C@@H](CC(N)=O)C(=O)N[C@H](C(=O)N[C@@H](Cc1ccc(O)cc1)C(N)=O)[C@@H](C)O)C(C)C)[C@@H](C)O, synthetic analogue of human amylin; also called compound 69)
